These results are taken from patent publication US20220348670A1 (BIODURO BEIJING, published 2022).

Test [1] has as its target T1, full-length human OX40 protein (human, UniProt P43489 29-277).
T1 sequence (looked up): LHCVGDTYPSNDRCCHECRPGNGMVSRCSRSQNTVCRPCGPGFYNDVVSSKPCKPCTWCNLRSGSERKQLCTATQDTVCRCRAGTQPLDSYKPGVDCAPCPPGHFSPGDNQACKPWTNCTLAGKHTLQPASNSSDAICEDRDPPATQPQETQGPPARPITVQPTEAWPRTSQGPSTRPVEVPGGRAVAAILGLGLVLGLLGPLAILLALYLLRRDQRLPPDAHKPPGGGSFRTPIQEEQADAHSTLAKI
In words: FACS on L929-hOX40 cells, PE anti-human FC secondary antibody. The protocol:
The L929-hOX40 stable cell line constructed in Example 2.1 was cultured and expanded to 90% confluence in a cell culture flask. After washing with PBS, the cell culture was digested with 0.25% Trypsin (purchased from Thermofisher) to form a single-cell suspension, neutralized with 10% FBS-containing medium, and counted. After centrifugation at 1000 rpm for 5 min, the cells were resuspended to 2×10⁶ cells/mL with FACS buffer (PBS+1% FBS), added to a 96-well FACS culture plate at 200 μL per well, centrifuged at 1000 rpm for 5 min and the supernatant was removed. A series of concentration gradients of anti-human OX40 antibodies to be tested or isotype control were added at 200 μL per well, and incubated at 4° C. for 1 hour in the dark. After centrifugation at 1000 rpm for 5 min, 200 μL of PE fluorescently labeled anti-human FC secondary antibody (purchased from Invitrogen) was added to each well, and incubated at 4° C. for 1 hour in the dark. After washing twice with FACS buffer, PBS buffer containing 1% paraformaldehyde at 200 μL per well was added to resuspend the cells, and a FACS instrument (BD Accuri C6) was used for detection and analysis.

The target in test [2] is T1, full-length human OX40 protein. Description: FACS on Jurkat-hOX40 cells, PE anti-human FC secondary antibody. The procedure:
Jurkat-hOX40 stable cell lines constructed in Example 2.1 were expanded and cultured in a cell culture flask, and cells in the logarithmic growth phase were counted. The cells were centrifuged at 1000 rpm for 5 min and then resuspended in FACS buffer (PBS+1% FBS) to 2×10⁶ cells/mL, and added to a 96-well FACS culture plate at 200 μL per well. After centrifugation at 1000 rpm for 5 min, the supernatant was removed, and a series of concentration gradients of purified anti-human OX40 antibodies to be tested or isotype control were added at 200 μL per well, incubated at 4° C. for 1 hour in the dark, centrifuged at 1000 rpm for 5 min, and then added with 200 μL of PE fluorescently labeled anti-human FC secondary antibody (purchased from Invitrogen) per well, and incubated at 4° C. for 1 hour in the dark. After washing twice with FACS buffer, PBS buffer containing 1% paraformaldehyde at 200 μL per well was added to resuspend cells, and a FACS instrument (BD Accuri C6) was used for detection and analysis.

Test [3] has the same target. In words: cell-based or functional assay.
Test [4] deals with T2, OX40-mFc protein (UniProt P43489 29-214).
T2 sequence (looked up): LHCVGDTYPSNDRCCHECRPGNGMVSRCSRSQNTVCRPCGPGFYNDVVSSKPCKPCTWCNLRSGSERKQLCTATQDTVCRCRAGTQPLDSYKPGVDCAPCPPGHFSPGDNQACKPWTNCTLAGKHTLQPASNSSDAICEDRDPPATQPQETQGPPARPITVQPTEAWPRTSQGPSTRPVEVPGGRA
Description: phage ELISA, monoclonal phage supernatant on OX40-mFc.

Test [5] concerns the target Milk. In words: phage ELISA, monoclonal phage supernatant on milk (background control). In general terms: An ELISA detects its analyte on a solid surface through an enzyme-linked reagent.
Test [6] deals with T3, murine full-length OX40 (murine, UniProt P47741 20-272).
T3 construct: whole, on cells; also called CHOS-OX40 (mus); PCMV3-OX40 (Mus)
T3 sequence (looked up): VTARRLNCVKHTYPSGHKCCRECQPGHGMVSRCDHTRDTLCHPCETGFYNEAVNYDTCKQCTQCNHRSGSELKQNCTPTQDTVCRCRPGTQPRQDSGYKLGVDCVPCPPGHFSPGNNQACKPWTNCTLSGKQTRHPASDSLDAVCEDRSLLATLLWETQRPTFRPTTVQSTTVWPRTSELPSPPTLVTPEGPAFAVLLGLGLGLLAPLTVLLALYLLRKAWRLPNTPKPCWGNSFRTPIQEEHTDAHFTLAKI
In words: FACS on transiently transfected CHO-S cells. An excerpt: (§1) Transient transfection of OX40 expression vector: CHO-S cells were revived, and passaged for at least 2 times, and then seeded into a 6-well plate at a density of 1×10⁶ cells/well. At the following day, the above expression vectors expressing different domains of OX40 were transfected into CHO-S cells by PEI transfection method.

Test [7] has as its target T4, OX40 (CRD3-4human) (human, UniProt P43489 108-277, limits assumed).
T4 construct: domain: CRD3-4; Named only in the results sentence; its construction is not described; also called CHOS-OX40 (CRD3-4human)
T4 sequence (looked up): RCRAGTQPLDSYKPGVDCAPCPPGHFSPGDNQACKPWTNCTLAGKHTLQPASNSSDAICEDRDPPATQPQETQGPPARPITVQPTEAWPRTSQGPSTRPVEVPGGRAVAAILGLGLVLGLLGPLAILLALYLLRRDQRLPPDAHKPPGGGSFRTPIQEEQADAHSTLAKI
In words: FACS on transiently transfected CHO-S cells.
Excerpt: as §1

The EC50 is the midpoint of the concentration-response curve. A lower EC50 goes with greater potency.

As to Isotype control (human IgG) (antibody), the values for the Maximum mean fluorescence intensity value (MFI) in test [1] and in test [2] were 8960 MFI and 999 MFI, respectively. Also, in test [3], the Maximum value (RLU), NF-kB reporter gene assay was 2650 RLU.

B1: OX40 BC3-7 (phage-displayed VHH clone) (VHH)
VHH: EVQLVESGGGLVQPGGSLRLSCAASGSIYDFDVMGWFRQAPGKGRELVAAINSFGDITYYPDSVEGRFTISRDNAKRMVYLQMNSLRAEDTAVYYCAADWHVLIQQVLGYWGQGTQVTVSS
notes: Tested as phage in monoclonal culture supernatant (M13 display), not as purified protein; the phage coat fusion is not described
As for B1, the “ELISA Results (OD450)” value in test [4] worked out at 3.12 OD450; in test [5] it was 0.045 OD450.

B2: anti-human OX40 antibody BC3-7 (OX40 VHH-Fc) (Fc fusion)
chain: B1 VHH
notes: VHH fused through a linker to human IgG Fc, expressed in ExpiCHO, purified on Protein A; also called OX40 BC3-7; OX40 VHH-Fc antibody; not shown: linker encoded by the CMV-12GS-FC vector; human IgG FC fragment (hFC)
For B2, in test [1], it took 0.693 nM to reach a half-maximal effect (EC50) and the “Maximum mean fluorescence intensity value (MFI)” value worked out at 327000 MFI. In test [2], the response was half-maximal at 0.548 nM (EC50) and the “Maximum mean fluorescence intensity value (MFI)” value was 24100 MFI. The binding result in test [6] is given as “no binding”. Also, the binding result in test [7] was “no binding”. In test [3], the “EC50, NF-kB reporter gene assay” value worked out at 0.13 nM and the “Maximum value (RLU), NF-kB reporter gene assay” value (“Maximum value (RLU)” below) worked out at 48400 RLU.

B3: OX40 BC3-4 (phage-displayed VHH clone) (VHH)
VHH: EVQLVESGGGLVQPGGSLRLSCAASGFIFSAYFMGWFRQAPGKGRELVAAINSNDDITYYPDSVEGRFTISRDNAKRMVYLQMNSLRAEDTAVYYCAAWLGAENYGYWGQGTQVTVSS
notes: as for B1
On to B3, for which the results for the “ELISA Results (OD450)” value in test [4] and in test [5] were 3.31 OD450 and 0.045 OD450, respectively.

B4: anti-human OX40 antibody BC3-4 (OX40 VHH-Fc) (Fc fusion)
chain: B3 VHH
notes: VHH fused through a linker to human IgG Fc, expressed in ExpiCHO, purified on Protein A; also called OX40 BC3-4; OX40 VHH-Fc antibody; not shown: linker encoded by the CMV-12GS-FC vector; human IgG FC fragment (hFC)
For B4, in test [1], the EC50 was determined as 0.862 nM and the “Maximum mean fluorescence intensity value (MFI)” value was determined as 308000 MFI. Also, in test [2], the EC50 was 0.395 nM and the “Maximum mean fluorescence intensity value (MFI)” value was 24000 MFI. The binding result in test [6] was “no binding”. Moreover, the binding result in test [7] was “no binding”. In test [3], the “EC50, NF-kB reporter gene assay” value was determined as 0.175 nM and the “Maximum value (RLU)” value worked out at 55700 RLU.

B5: OX40 BC3-6 (phage-displayed VHH clone) (VHH)
VHH: EVQLVESGGGLVQPGGSLRLSCAASGSILDSNLMGWFRQAPGKGRELVASINSYDDNTYYPDSVEGRFTISRDNAKRMVYLQMNSLRAEDTAVYYCAAQVFVGWPYTDQMHDYWGQGTQVTVSS
notes: as for B1
In the case of B5, the “ELISA Results (OD450)” value in test [4] was found to be 3.21 OD450; in test [5] it was 0.045 OD450.

B6: anti-human OX40 antibody BC3-6 (OX40 VHH-Fc) (Fc fusion)
chain: B5 VHH
notes: VHH fused through a linker to human IgG Fc, expressed in ExpiCHO, purified on Protein A; also called OX40 BC3-6; OX40 VHH-Fc antibody; not shown: linker encoded by the CMV-12GS-FC vector; human IgG FC fragment (hFC)
For B6, in test [1], a half-maximal effect (EC50) was put at 0.545 nM and the “Maximum mean fluorescence intensity value (MFI)” value was determined as 198000 MFI. In test [2], the response was half-maximal at 0.683 nM (EC50) and the “Maximum mean fluorescence intensity value (MFI)” value came to 12800 MFI. In addition, the binding result in test [6] is “no binding”. The binding result in test [7] is “no binding”. Besides, in test [3], the “EC50, NF-kB reporter gene assay” value was found to be 0.162 nM and the “Maximum value (RLU)” value turned out to be 50300 RLU.

B7: OX40 BC3-1 (phage-displayed VHH clone) (VHH)
VHH: EVQLVESGGGLVQPGGSLRLSCAASGSIFSVYVMGWFRQAPGKGRELVAAITPFDDNTYYPDSVEGRFTISRDNAKRMVYLQMNSLRAEDTAVYYCAADWEWPEYNYWGQGTQVTVSS
notes: as for B1
In the case of B7, the “ELISA Results (OD450)” value in test [4] turned out to be 3.45 OD450; in test [5], 0.047 OD450.

B8: anti-human OX40 antibody BC3-1 (OX40 VHH-Fc) (Fc fusion)
chain: B7 VHH
notes: VHH fused through a linker to human IgG Fc, expressed in ExpiCHO, purified on Protein A; also called OX40 BC3-1; OX40 VHH-Fc antibody; not shown: linker encoded by the CMV-12GS-FC vector; human IgG FC fragment (hFC)
Regarding B8, the figures for the half-maximal effective concentration (EC50) in test [1] and in test [2] were 0.488 nM and 0.257 nM, respectively. The “Maximum mean fluorescence intensity value (MFI)” value in test [1] turned out to be 285000 MFI; in test [2], 17500 MFI. For the same molecule, the binding result in test [6] and in test [7] was “no binding” throughout. Also, in test [3], the “EC50, NF-kB reporter gene assay” value amounted to 0.209 nM. Besides, in test [3], the “Maximum value (RLU)” value was 53400 RLU.
